In IntAct's records for PubMed 30496485:

B1: Coiled-coil-helix-coiled-coil-helix domain-containing protein 2 (Homo sapiens), Q9Y6H1 (parent)
chain: MPRGSRSRTSRMAPPASRAPQMRAAPRPAPVAQPPAAAPPSAVGSSAAAPRQPGLMAQMATTAAGVAVGSAVGHTLGHAITGGFSGGSNAEPARPDITYQEPQGTQPAQQQQPCLYEIKQFLECAQNQGDIKLCEGFNEVLKQCRLANGLA
partner: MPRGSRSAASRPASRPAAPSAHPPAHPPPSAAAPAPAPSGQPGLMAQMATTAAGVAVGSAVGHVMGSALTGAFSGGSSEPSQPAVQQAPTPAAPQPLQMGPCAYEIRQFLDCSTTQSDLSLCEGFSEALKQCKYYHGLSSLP

Variants of: B1
Details: with chc10_human CHCHD10, Q8WYQ3

How did the “effect of a mutation on the interaction” value turn out when R145Q was run?
Its value is “disrupting interaction strength”.

T61I was tested. Which “effect of a mutation on the interaction” value did it give?
Its value is “disrupting interaction strength”.
